Assay results published in patent US20050079503A1, “Binding domain of Siah (seven in absentia homolog) protein” (PETER MacCALLUM CANCER INSTITUTE, ST. VINCENT'S INSTITUTE …, priority 2001, published 2005).
Where a chain is given by its changes, count along the chain named. Several values for one entry are separate records, joined by “and”; a condition that tells them apart may be missing. Equal values may be shown once. Entries after “also recorded” stand apart in the source; their conditions may differ. Blank lines part the entries; values can stand above or below the molecule they belong to. No end group written: not given here. *: point of attachment. Biotin = O=C1N[C@H]2[C@H](CS[C@H]2CCCCC(=O)*)N1

Legend:
Siah1a SBD = biological target: T1, Siah1a SBD (Mus musculus, UniProt P61092); assay: Stoichiometry of the GST-PHYL108-130 / Siah1a SBD complex by gel filtration and N-terminal sequencing; format: binding; conditions: complex isolated on Superdex 200; after five cycles of N-terminal sequencing
T1 construct: isolating a complex of GST-PHYL108-130 and Siah1a SBD by gel filtration; made in house; host or cells: E. coli BL21DE3
T1 sequence (P61092 90-282 limits assumed): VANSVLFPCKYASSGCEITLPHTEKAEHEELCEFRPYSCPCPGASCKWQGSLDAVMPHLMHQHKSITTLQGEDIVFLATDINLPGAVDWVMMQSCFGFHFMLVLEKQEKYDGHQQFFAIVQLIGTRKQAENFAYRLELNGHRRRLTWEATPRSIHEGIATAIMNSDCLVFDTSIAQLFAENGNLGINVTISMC
Source text: (§1) The stoichiometry of interaction was investigated by isolating a complex of GST-PHYL108-130 and Siah1a SBD by gel filtration on Superdex 200 and quantitating the components by N-terminal sequencing.

MBP-Siah = biological target: T2, MBP-Siah (Mus musculus, UniProt P61092); assay: Competition assay: peptides as competitors of wild-type PHYL108-130 binding to Siah (96-well plate, anti-MBP detection); conditions: competition with immobilised GST-PHYL108-130 for MBP-Siah, 1 hour at room temperature; estimated from inhibition curves; read-out: IC50 (concentration at which 50% inhibition is observed)
T2 construct: made in house
T2 sequence (P61092 1-282): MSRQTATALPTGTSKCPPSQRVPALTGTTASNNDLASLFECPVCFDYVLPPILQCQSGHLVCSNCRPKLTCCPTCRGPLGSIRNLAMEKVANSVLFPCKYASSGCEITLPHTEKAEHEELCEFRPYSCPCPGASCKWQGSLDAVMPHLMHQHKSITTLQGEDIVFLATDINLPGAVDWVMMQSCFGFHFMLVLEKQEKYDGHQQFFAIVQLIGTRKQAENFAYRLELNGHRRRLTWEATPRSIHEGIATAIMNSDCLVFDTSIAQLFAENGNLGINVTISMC
Method: Mutant peptides were used in a competition assay in which they were tested as competitors of wild-type PHYL 108-130 binding to Siah. GST-PHYL108-130 was immobilised in wells of a 96-well plate and MBP-Siah was bound for 1 hour at room temperature, in the presence of various concentrations of mutant peptides. After binding and washing, the amount of bound MBP-Siah was quantitated in a two antibody sandwich of anti-MBP antibody, followed by HRP-conjugated goat anti-rabbit antibody, using ABTS as substrate. IC50 (the concentration at which 50% inhibition is observed) values were estimated from the individual inhibition curves.
In order to test this hypothesis Applicants systematically mutated the PHYL peptide, utilising the solid phase pin technology of Mimotopes (Clayton, Victoria, Australia). A full set of peptides, with alanine substituted at each position in the peptide, was synthesised. At positions where a native alanine occurred, glycine was substituted. Mutant peptides were screened for their ability to compete with the binding between Siah and PHYL peptide, then peptides of interest were investigated further utilising surface plasmon resonance.
The initial screen of peptides yielded IC50 values of approximately 50-100 nM for wild-type peptide or peptides with ineffective mutations. […]

MBP-Siah1a = biological target: T3, MBP-Siah1a (Mus musculus, UniProt P61092); assay: Surface plasmon resonance (Biacore) binding of PHYL108-130 to Siah; conditions: Biacore 2000, peptide immobilised on chip, MBP-Siah1a as analyte, read-out: affinity constant
T3 construct: made in house; host or cells: pMalC2 plasmid
T3 sequence (P61092 1-282): T2 sequence (P61092 1-282)
Source text: (§2) The binding kinetics for Siah interaction with PHYL108-130 were monitored using surface plasmon resonance on a Biacore 2000. The biotinylated PHYL108-130 peptide was captured on the chip surface by immobilised neutravidin, and MBP-Siah1a was used as analyte.
(§3) To determine binding affinities, synthetic PHYL peptide was immobilised to a C5 BIAcore chip using two different strategies (direct chemical coupling through the free amino group on Lysine113 and binding to coupled avidin via an N-terminal biotin on the peptide) and interaction was measured directly by surface plasmon resonance. This method facilitated the measurement of association and dissociation rates, and the determination of an affinity constant (FIG. 26).

[1] = biological target: T4, mutant MBP-Siah1a-ZC containing a Leu211 to Arg mutation (Mus musculus, UniProt P61092, L211R); assay: ELISA-based binding of biotinylated plectin peptide to mutant Siah substrate-binding domain; conditions: peptide captured on Neutravidin plate at 4 μg/ml; ABTS read at A405
T4 construct: made in house; the making of the mutant is not described
T4 sequence (P61092 80-282 L211R): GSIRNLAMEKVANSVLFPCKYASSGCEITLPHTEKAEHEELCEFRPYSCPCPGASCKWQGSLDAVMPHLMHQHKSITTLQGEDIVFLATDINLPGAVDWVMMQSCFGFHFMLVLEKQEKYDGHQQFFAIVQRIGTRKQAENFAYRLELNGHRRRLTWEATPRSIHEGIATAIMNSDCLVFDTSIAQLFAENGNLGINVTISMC
Method: (§4) Siah SBD binding to the plectin peptide (Biotin-[…]-NH2 corresponding to residues 95-117 of human plectin) was assessed by capturing biotinylated peptide on a 96-well plate coated with 0.5 μg Neutravidin per well. Peptide was captured for 30 min at room temperature at a concentration of 4 μg/ml. MBP-Siah1a-ZC fusion protein was bound to the peptide for 50 min at room temperature (or the controls of buffer alone (PBS/tween 20) or mutant MBP-Siah1a-ZC containing a Leu211 to Arg mutation). Bound protein was quantitated by rabbit anti-MBP antibody (1:300 dilution), then HRP conjugated goat-anti-rabbit antibody. Detection utilised ABTS substrate read at A405.
(§5) Following the identification of a Siah binding motif present in PHYL (RPVAXVXPXXR), a protein database search detected a number of proteins with conserved motifs, including plectin. The Applicants utilised a synthetic peptide corresponding to the sequence […] in plectin to test binding to Siah in an ELISA-based assay, where the underlined sequence corresponds to the amino acids conserved with the PHYL motif. […] Furthermore, as other Siah binding proteins are identified in this way it is predicted that the sequence of the optimal binding motif will be further refined.

[2] = biological target: T5, MBP-Siah1a-ZC fusion protein (native Siah substrate-binding domain) (Mus musculus, UniProt P61092); assay: ELISA-based binding of biotinylated plectin peptide to Siah substrate-binding domain; conditions: peptide captured on Neutravidin plate at 4 μg/ml; ABTS read at A405
T5 construct: made in house; host or cells: E. coli BL21DE3
T5 sequence (P61092 80-282): T4 sequence (P61092 80-282 L211R) with R132L
Method: as §4, §5

[3] = biological target: T6, MBP-Siah1a-ZC fusion protein (mouse, UniProt P61092 80-282); assay: ELISA: biotinylated plectin peptide captured on Neutravidin-coated plate, bound MBP fusion detected with anti-MBP and HRP antibody, ABTS, A405
T6 construct: range 80-282; ZC = zinc fingers plus C-terminus, residues 80-282 of Siah1a, fused to MBP; also called Siah SBD; not shown: linker not described
T6 sequence (looked up): T4 sequence (P61092 80-282 L211R) with R132L
Method: as §4

GST-PHYL108-130 = biological target: T7, GST-PHYL108-130 (Drosophila); assay: complex isolated by gel filtration on Superdex 200, components quantitated by N-terminal sequencing (five cycles)
T7 construct: also called PHYL peptide as a fusion protein with glutathione-S-transferase; not shown: glutathione-S-transferase (GST) fusion partner
T7 chain: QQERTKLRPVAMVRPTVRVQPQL
Source text: as §1

[4] = biological target: the molecule itself; assay: size exclusion chromatography (self-association of the Siah1a binding domain)
[5] = biological target: T8, MBP-Siah1a fusion protein (mouse, UniProt P61092 1-282, limits assumed); assay: SPR, Biacore 2000; biotinylated peptide captured on immobilised neutravidin, MBP-Siah1a as analyte
T8 construct: not shown: linker to Siah1a not described
T8 sequence (looked up): T2 sequence (P61092 1-282)
Source text: as §2, §3

[6] = biological target: T9, mutant form of Siah (Leu211 to Arg) (Mus musculus, UniProt P61092, L211R); assay: Binding of PHYL to mutant form of Siah; conditions: method not stated
T9 construct: made in house
T9 sequence (P61092 80-282 L211R): T4 sequence (P61092 80-282 L211R)

Siah = biological target: T10, Siah (Mus musculus, UniProt P61092); assay: Interaction studies using bacterially expressed proteins; format: binding
T10 construct: made in house; host or cells: bacteria
T10 sequence (P61092 1-282): T2 sequence (P61092 1-282)
Source text: PHYL is known to interact and function with SINA, the Drosophila orthologue of mammalian Siah, in the targeted degradation of the transcriptional repressor tramtrack 88 (TTK88). Applicants have shown that it interacts similarly with mammalian Siah.

average ratio of Siah binding domain to GST-PHYL108-130 residues (Siah1a SBD): 2.34±0.38
Molecule: GST-PHYL108-130: PHYL 23-residue peptide expressed as a fusion with glutathione-S-transferase (GST) (QQERTKLRPVAMVRPTVRVQPQL; not fully specified (N-terminus); also: GST fusion)

IC50 (MBP-Siah): 50 to 100 nM | Kd (MBP-Siah1a): ~180 nM and 180 nM
Molecule: QQERTKLRPVAMVRPTVRVQPQL [PHYL108-130]

Molecule: Biotin-ASLQRVRRPVAMVMPARRTPHVQ-NH2 [plectin peptide]
binding to mutant form of Siah substrate-binding domain (Leu211 to Arg) [1]: not | binding to native Siah substrate-binding domain [2]: bound; also recorded: binds

binding result [3]: binds
B1: plectin peptide (Biotin-ASLQRVRRPVAMVMPARRTPHVQ-NH2) (peptide)
peptide: Biotin-ASLQRVRRPVAMVMPARRTPHVQ-NH2
SMILES: CSCC[C@H](NC(=O)[C@H](C)NC(=O)[C@@H](NC(=O)[C@@H]1CCCN1C(=O)[C@H](CCCNC(=N)N)NC(=O)[C@H](CCCNC(=N)N)NC(=O)[C@@H](NC(=O)[C@H](CCCNC(=N)N)NC(=O)[C@H](CCC(N)=O)NC(=O)[C@H](CC(C)C)NC(=O)[C@H](CO)NC(=O)[C@H](C)NC(=O)CCCC[C@@H]1SC[C@@H]2NC(=O)N[C@@H]21)C(C)C)C(C)C)C(=O)N[C@H](C(=O)N[C@@H](CCSC)C(=O)N1CCC[C@H]1C(=O)N[C@@H](C)C(=O)N[C@@H](CCCNC(=N)N)C(=O)N[C@@H](CCCNC(=N)N)C(=O)N[C@H](C(=O)N1CCC[C@H]1C(=O)N[C@@H](Cc1c[nH]cn1)C(=O)N[C@H](C(=O)N[C@@H](CCC(N)=O)C(N)=O)C(C)C)[C@@H](C)O)C(C)C
notes: also called synthetic peptide corresponding to residues 95-117 of human plectin

average ratio of Siah binding domain to GST-PHYL108-130 residues (stoichiometry) (GST-PHYL108-130): 2.34 mol/mol
B2: Siah1a binding domain (purified tryptic fragment) (other, mouse, UniProt P61092 90-282, looked up)
chain: T1 sequence (P61092 90-282 limits assumed)
modifications: two 2-mercaptoethanol adducts on cysteines in the purified form (21,838 Da; 21,685 Da when reduced)
notes: Dimer by size exclusion chromatography and in the crystal; Start residue must be found by locating VANSV on Siah1a; also called Siah1a SBD
binding result [4]: binds

Kd [5]: 180 nM
Molecule: Biotin-QQERTKLRPVAMVRPTVRVQPQL (also called synthetic PHYL peptide) [biotinylated PHYL108-130 peptide]

binding to mutant form of Siah [6]: does not bind | affinity of interaction with Siah (in words) (Siah): high affinity
B3: PHYL: phyllopod (PHYL) protein from Drosophila (protein, UniProt Q27934 1-400, looked up)
Protein phyllopod: MSTNQQQQANPSAAVAAPAASSEYLKRTCLICGCHTNQTINIYEPRSGPNIVQLIQAKFKFQPLNEDKFLCFSCNNWLINWHSLQAVNSNEAESQSQSPSHMGNSVLQQERTKLRPVAMVRPTVRVQPQSQPQLQPQVPINPTPAPIVYSKRRASRRSASVSRMSRVLRQCCVESLRRSPKKRNQQSVFVCLRPQGQKRSNAICKVECVAPRRKPVERLVKDVAATATPTPVLNTQSTPTYQRFPQPSVDGKVVAMFRRLGTTLSREEPAAYSAESNPACSKLPQIMSPLKEAPRWTRDLDDDEILLEFDTAISEVLPTARYQVTHEENKENQQAQEMELELEEEEEVDGRAELEVVQEAEAPLEPQSHHKQGNSHQNSHQASIQLAGLRLPMGLSISLV
